Measurements from PMC5558965, “Cysteine-rich protein 2 accelerates actin filament cluster formation” (PLoS ONE, 2017).

Target: Actin protein (from Bovine skeletal muscle), polymerised to F-actin (bovine, UniProt P68138 1-377)
Assay: cell-based or functional assay

SAXS decreasing ratio d (0.01 < Q < 0.016) of F-actin; F-actin:CRP2 ratio 1:0 to 1:4.6 (d 1.4 to 3.4): 3.4
B1: Cysteine-rich protein 2 (CRP2), recombinant mouse, full length, with (His)6 tag at the C-terminus (natural protein)
chain: MPVWGGGNKCGACGRTVYHAEEVQCDGRSFHRCCFLCMVCRKNLDSTTVAIHDEEIYCKSCYGKKYGPKGYGYGQGAGTLNMDRGERLGIKPESAQPHRPTTNPNTSKFAQKYGGAEKCSRCGDSVYAAEKIIGAGKPWHKNCFRCAKCGKSLESTTLTEKEGEIYCKGCYAKNFGPKGFGYGQGAGALVHAQ
